Measurements taken from PMC11033526 (2023).
No end group written: not given here. *: point of attachment. Biotin = O=C1N[C@H]2[C@H](CS[C@H]2CCCCC(=O)*)N1

Assays:
mouse calmodulin [1] = target: T1, mouse calmodulin (mouse, UniProt P0DP26 1-149); experiment: SPR; 1 mM EGTA (no Ca2+)
mouse calmodulin [2] = target: T1, mouse calmodulin; experiment: SPR; 1 mM EGTA (no Ca2+); remark: listed apart in the source

Kd (mouse calmodulin [1]): 9.7 µM
koff (mouse calmodulin [2]): 0.00207 s⁻¹
B1: biotin-mT1r2 CT peptide (cytosolic C-terminal region of mouse taste receptor type 1 subunit 2) (peptide)
peptide: Biotin-GGSGGSPKCYMILFYPERNTSAYFNSMIQGYTMRKS
